Like-named read-outs stand apart in the source and are kept apart here.
T1: human GIP receptor (human, UniProt P48546 22-466)
T1 sequence: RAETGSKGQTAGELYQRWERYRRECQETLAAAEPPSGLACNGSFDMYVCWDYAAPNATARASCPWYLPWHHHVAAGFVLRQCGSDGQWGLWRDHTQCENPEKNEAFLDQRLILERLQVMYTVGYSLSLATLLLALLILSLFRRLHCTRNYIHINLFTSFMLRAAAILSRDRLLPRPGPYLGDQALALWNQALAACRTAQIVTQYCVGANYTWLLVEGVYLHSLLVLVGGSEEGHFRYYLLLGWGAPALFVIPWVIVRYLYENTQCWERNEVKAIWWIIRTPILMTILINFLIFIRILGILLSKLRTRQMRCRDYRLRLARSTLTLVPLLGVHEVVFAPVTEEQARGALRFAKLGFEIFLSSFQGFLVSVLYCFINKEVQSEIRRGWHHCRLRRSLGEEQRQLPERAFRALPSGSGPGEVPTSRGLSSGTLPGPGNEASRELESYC


How the values were obtained:
Assay in all cases: cell-based or functional assay
[1] = molecular target: T2, human glucagon receptor (human, UniProt P47871 26-477)
T2 sequence (P47871 26-477): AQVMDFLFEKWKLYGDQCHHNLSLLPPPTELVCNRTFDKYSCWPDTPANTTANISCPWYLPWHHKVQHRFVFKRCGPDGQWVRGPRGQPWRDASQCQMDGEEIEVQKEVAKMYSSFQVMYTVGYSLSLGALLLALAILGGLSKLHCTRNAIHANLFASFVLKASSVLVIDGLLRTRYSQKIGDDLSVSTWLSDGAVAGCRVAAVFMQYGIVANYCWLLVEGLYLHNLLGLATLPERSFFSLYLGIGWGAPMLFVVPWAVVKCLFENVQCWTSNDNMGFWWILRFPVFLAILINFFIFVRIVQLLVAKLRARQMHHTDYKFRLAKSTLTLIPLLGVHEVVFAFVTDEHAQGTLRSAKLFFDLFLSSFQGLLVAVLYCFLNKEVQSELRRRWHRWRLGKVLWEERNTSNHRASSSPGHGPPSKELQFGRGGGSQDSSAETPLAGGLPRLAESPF

[2] = molecular target: T3, human glucagon-like peptide 1 receptor (human, UniProt P43220 24-463)
[3] = molecular target: T1, human GIP receptor
[4] = molecular target: T2, human glucagon receptor; remark: listed apart in the source
[5] = molecular target: T3, human glucagon-like peptide 1 receptor; remark: listed apart in the source
[6] = molecular target: T1, human GIP receptor; remark: listed apart in the source

| Binder | EC50 (cAMP induction) [1] | EC50 (cAMP induction) [2] | EC50 (cAMP induction) [3] | EC50 (cAMP induction) [4] | EC50 (cAMP induction) [5] | EC50 (cAMP induction) [6] |
| --- | --- | --- | --- | --- | --- | --- |
| YAQGTFTSDYSIYLEKKAAKEFVEWLLSA (HELM PEPTIDE1{Y.[Aib].Q.G.T.F.T.S.D.Y.S.I.Y.L.E.K.K.A.A.K.E.F.V.E.W.L.L.S.A.[am]}$$$$V2.0; SMILES CC[C@H](C)[C@H](NC(=O)[C@H](CO)NC(=O)[C@H](Cc1ccc(O)cc1)NC(=O)[C@H](CC(=O)O)NC(=O)[C@H](CO)NC(=O)[C@@H](NC(=O)[C@H](Cc1ccccc1)NC(=O)[C@@H](NC(=O)CNC(=O)[C@H](CCC(N)=O)NC(=O)C(C)(C)NC(=O)[C@@H](N)Cc1ccc(O)cc1)[C@@H](C)O)[C@@H](C)O)C(=O)N[C@@H](Cc1ccc(O)cc1)C(=O)N[C@@H](CC(C)C)C(=O)N[C@@H](CCC(=O)O)C(=O)N[C@@H](CCCCN)C(=O)N[C@@H](CCCCN)C(=O)N[C@@H](C)C(=O)N[C@@H](C)C(=O)N[C@@H](CCCCN)C(=O)N[C@@H](CCC(=O)O)C(=O)N[C@@H](Cc1ccccc1)C(=O)N[C@H](C(=O)N[C@@H](CCC(=O)O)C(=O)N[C@@H](Cc1c[nH]c2ccccc12)C(=O)N[C@@H](CC(C)C)C(=O)N[C@@H](CC(C)C)C(=O)N[C@@H](CO)C(=O)N[C@@H](C)C(N)=O)C(C)C) [Compound 20] | 0.057 nM | 0.0094 nM | 0.047 nM | 0.057 nM | 0.057 nM | 0.009 nM |
| YAQGTFTSDYSIYLDSKAAHDFVEWLLSAGPSSGAPPPS (HELM PEPTIDE1{Y.[Aib].Q.G.T.F.T.S.D.Y.S.I.Y.L.D.S.K.A.A.H.D.F.V.E.W.L.L.S.A.G.P.S.S.G.A.P.P.P.S.[am]}$$$$V2.0; SMILES CC[C@H](C)[C@H](NC(=O)[C@H](CO)NC(=O)[C@H](Cc1ccc(O)cc1)NC(=O)[C@H](CC(=O)O)NC(=O)[C@H](CO)NC(=O)[C@@H](NC(=O)[C@H](Cc1ccccc1)NC(=O)[C@@H](NC(=O)CNC(=O)[C@H](CCC(N)=O)NC(=O)C(C)(C)NC(=O)[C@@H](N)Cc1ccc(O)cc1)[C@@H](C)O)[C@@H](C)O)C(=O)N[C@@H](Cc1ccc(O)cc1)C(=O)N[C@@H](CC(C)C)C(=O)N[C@@H](CC(=O)O)C(=O)N[C@@H](CO)C(=O)N[C@@H](CCCCN)C(=O)N[C@@H](C)C(=O)N[C@@H](C)C(=O)N[C@@H](Cc1c[nH]cn1)C(=O)N[C@@H](CC(=O)O)C(=O)N[C@@H](Cc1ccccc1)C(=O)N[C@H](C(=O)N[C@@H](CCC(=O)O)C(=O)N[C@@H](Cc1c[nH]c2ccccc12)C(=O)N[C@@H](CC(C)C)C(=O)N[C@@H](CC(C)C)C(=O)N[C@@H](CO)C(=O)N[C@@H](C)C(=O)NCC(=O)N1CCC[C@H]1C(=O)N[C@@H](CO)C(=O)N[C@@H](CO)C(=O)NCC(=O)N[C@@H](C)C(=O)N1CCC[C@H]1C(=O)N1CCC[C@H]1C(=O)N1CCC[C@H]1C(=O)N[C@@H](CO)C(N)=O)C(C)C) [Compound 13] | 0.24 nM | 0.0099 nM | 0.083 nM | 0.24 nM | 0.24 nM | 0.01 nM |
| YAQGTFTSDYSIYLDKKAAHDFVEWLLSA (HELM PEPTIDE1{Y.[Aib].Q.G.T.F.T.S.D.Y.S.I.Y.L.D.K.K.A.A.H.D.F.V.E.W.L.L.S.A.[am]}$$$$V2.0; SMILES CC[C@H](C)[C@H](NC(=O)[C@H](CO)NC(=O)[C@H](Cc1ccc(O)cc1)NC(=O)[C@H](CC(=O)O)NC(=O)[C@H](CO)NC(=O)[C@@H](NC(=O)[C@H](Cc1ccccc1)NC(=O)[C@@H](NC(=O)CNC(=O)[C@H](CCC(N)=O)NC(=O)C(C)(C)NC(=O)[C@@H](N)Cc1ccc(O)cc1)[C@@H](C)O)[C@@H](C)O)C(=O)N[C@@H](Cc1ccc(O)cc1)C(=O)N[C@@H](CC(C)C)C(=O)N[C@@H](CC(=O)O)C(=O)N[C@@H](CCCCN)C(=O)N[C@@H](CCCCN)C(=O)N[C@@H](C)C(=O)N[C@@H](C)C(=O)N[C@@H](Cc1c[nH]cn1)C(=O)N[C@@H](CC(=O)O)C(=O)N[C@@H](Cc1ccccc1)C(=O)N[C@H](C(=O)N[C@@H](CCC(=O)O)C(=O)N[C@@H](Cc1c[nH]c2ccccc12)C(=O)N[C@@H](CC(C)C)C(=O)N[C@@H](CC(C)C)C(=O)N[C@@H](CO)C(=O)N[C@@H](C)C(N)=O)C(C)C) [Compound 19] | 0.024 nM | 0.013 nM | 0.032 nM | 0.024 nM | 0.024 nM | 0.013 nM |
| YAQGTFTSDYSIYLDEKAAKDFVEWLLSA (HELM PEPTIDE1{Y.[Aib].Q.G.T.F.T.S.D.Y.S.I.Y.L.D.E.K.A.A.K.D.F.V.E.W.L.L.S.A.[am]}$$$$V2.0; SMILES CC[C@H](C)[C@H](NC(=O)[C@H](CO)NC(=O)[C@H](Cc1ccc(O)cc1)NC(=O)[C@H](CC(=O)O)NC(=O)[C@H](CO)NC(=O)[C@@H](NC(=O)[C@H](Cc1ccccc1)NC(=O)[C@@H](NC(=O)CNC(=O)[C@H](CCC(N)=O)NC(=O)C(C)(C)NC(=O)[C@@H](N)Cc1ccc(O)cc1)[C@@H](C)O)[C@@H](C)O)C(=O)N[C@@H](Cc1ccc(O)cc1)C(=O)N[C@@H](CC(C)C)C(=O)N[C@@H](CC(=O)O)C(=O)N[C@@H](CCC(=O)O)C(=O)N[C@@H](CCCCN)C(=O)N[C@@H](C)C(=O)N[C@@H](C)C(=O)N[C@@H](CCCCN)C(=O)N[C@@H](CC(=O)O)C(=O)N[C@@H](Cc1ccccc1)C(=O)N[C@H](C(=O)N[C@@H](CCC(=O)O)C(=O)N[C@@H](Cc1c[nH]c2ccccc12)C(=O)N[C@@H](CC(C)C)C(=O)N[C@@H](CC(C)C)C(=O)N[C@@H](CO)C(=O)N[C@@H](C)C(N)=O)C(C)C) [Compound 17] | 0.16 nM | 0.011 nM | 0.091 nM | 0.16 nM | 0.16 nM | 0.013 nM |
| YAQGTFTSDYSIYLESKAAHDFVEWLLSA (HELM PEPTIDE1{Y.[Aib].Q.G.T.F.T.S.D.Y.S.I.Y.L.E.S.K.A.A.H.D.F.V.E.W.L.L.S.A.[am]}$$$$V2.0; SMILES CC[C@H](C)[C@H](NC(=O)[C@H](CO)NC(=O)[C@H](Cc1ccc(O)cc1)NC(=O)[C@H](CC(=O)O)NC(=O)[C@H](CO)NC(=O)[C@@H](NC(=O)[C@H](Cc1ccccc1)NC(=O)[C@@H](NC(=O)CNC(=O)[C@H](CCC(N)=O)NC(=O)C(C)(C)NC(=O)[C@@H](N)Cc1ccc(O)cc1)[C@@H](C)O)[C@@H](C)O)C(=O)N[C@@H](Cc1ccc(O)cc1)C(=O)N[C@@H](CC(C)C)C(=O)N[C@@H](CCC(=O)O)C(=O)N[C@@H](CO)C(=O)N[C@@H](CCCCN)C(=O)N[C@@H](C)C(=O)N[C@@H](C)C(=O)N[C@@H](Cc1c[nH]cn1)C(=O)N[C@@H](CC(=O)O)C(=O)N[C@@H](Cc1ccccc1)C(=O)N[C@H](C(=O)N[C@@H](CCC(=O)O)C(=O)N[C@@H](Cc1c[nH]c2ccccc12)C(=O)N[C@@H](CC(C)C)C(=O)N[C@@H](CC(C)C)C(=O)N[C@@H](CO)C(=O)N[C@@H](C)C(N)=O)C(C)C) [Compound 18] | 0.15 nM | 0.021 nM | 0.07 nM | 0.15 nM | 0.15 nM | 0.021 nM |
| YAQGTFTSDYSIYLEKKAAHDFVEWLLSA (HELM PEPTIDE1{Y.[Aib].Q.G.T.F.T.S.D.Y.S.I.Y.L.E.K.K.A.A.H.D.F.V.E.W.L.L.S.A.[am]}$$$$V2.0; SMILES CC[C@H](C)[C@H](NC(=O)[C@H](CO)NC(=O)[C@H](Cc1ccc(O)cc1)NC(=O)[C@H](CC(=O)O)NC(=O)[C@H](CO)NC(=O)[C@@H](NC(=O)[C@H](Cc1ccccc1)NC(=O)[C@@H](NC(=O)CNC(=O)[C@H](CCC(N)=O)NC(=O)C(C)(C)NC(=O)[C@@H](N)Cc1ccc(O)cc1)[C@@H](C)O)[C@@H](C)O)C(=O)N[C@@H](Cc1ccc(O)cc1)C(=O)N[C@@H](CC(C)C)C(=O)N[C@@H](CCC(=O)O)C(=O)N[C@@H](CCCCN)C(=O)N[C@@H](CCCCN)C(=O)N[C@@H](C)C(=O)N[C@@H](C)C(=O)N[C@@H](Cc1c[nH]cn1)C(=O)N[C@@H](CC(=O)O)C(=O)N[C@@H](Cc1ccccc1)C(=O)N[C@H](C(=O)N[C@@H](CCC(=O)O)C(=O)N[C@@H](Cc1c[nH]c2ccccc12)C(=O)N[C@@H](CC(C)C)C(=O)N[C@@H](CC(C)C)C(=O)N[C@@H](CO)C(=O)N[C@@H](C)C(N)=O)C(C)C) [Compound 14] | 0.1 nM | 0.013 nM | 0.06 nM | 0.1 nM | 0.1 nM | 0.013 nM |
